Here are results for 133 substances from the supplement of paper PMC12042874.

± gives the uncertainty stated by the source.

A short description of the series: amyloid nucleation score (Sup35N fusion, yeast selection) (log enrichment); library NNK3; higher = more nucleation; inactive = no reads after selection. A digest of the protocol: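 The nucleation score is the log enrichment of output over input reads, calculated with DiMSum and centred on the mode score of non-aggregating sequences. Sequences with under 100 input reads were excluded. Reads came from Illumina sequencing of plasmid inserts from psi-negative yeast expressing Sup35N fused to peptides of 20 random codons, induced 24 hours with 100 μM copper sulfate and grown 7 days at 30°C without adenine and uracil.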
For the substance CLSSSETPFSGDRTMA, the amyloid nucleation score was -0.046 ± 0.52.

As for IWENNSIML, the amyloid nucleation score entry is “inactive”.

In the case of YLNSDRSYEMDTFRFGYLLY, the amyloid nucleation score entry was “inactive”.

Take SKSYVEF: the amyloid nucleation score entry is “inactive”.

For LKRCRLQMAGYELSWDQGTM, the amyloid nucleation score result is “inactive”.

As for SARRTVYLFQNSHRVHPFLF, the amyloid nucleation score entry was “inactive”.

Regarding YLYLWSFCMSMVGFSIYRES, the amyloid nucleation score entry was “inactive”.

As to LFDALYLEVTLGSSMVYVKN, the amyloid nucleation score result was “inactive”.

As to LFNLL, the amyloid nucleation score result was “inactive”.

For the substance TCSISIRAGLVLNPCWSDYA, the amyloid nucleation score entry was “inactive”.

As to RLYDIVCYSTVVL, the amyloid nucleation score stood at 1.99 ± 0.074.

Consider RKSHD, for which the amyloid nucleation score result was “inactive”.

Consider WVDGYFNLTENVPAVVGK, for which the amyloid nucleation score entry is “inactive”.

For QNVFWIVSGTSEWGSALVFG, the amyloid nucleation score entry is “inactive”.

For the substance FLFYLFFFSGRMDR, the amyloid nucleation score was found to be 0.179 ± 0.33.

As to SYSISDDLVTNHVPQNST, the amyloid nucleation score result was “inactive”.

As for RAGTKLPLYL, the amyloid nucleation score result was “inactive”.

Regarding SHYSSWVSRDRWSNTEFGMV, the amyloid nucleation score entry is “inactive”.

On to LMSNHCGKYWRHFSWIMTVF, for which the amyloid nucleation score result was “inactive”.

With LRLMAGNGSSKVGPIKMPWY, the amyloid nucleation score result was “inactive”.

Regarding SIRKHFPIRNMDELHSARN, the amyloid nucleation score entry was “inactive”.

Turning to YKLKLIKEFCIGIRC, the amyloid nucleation score entry was “inactive”.

Regarding HWLRCHEVEKVLVL, the amyloid nucleation score entry is “inactive”.

In turn, LCMQFNLVWRYDRRETINSE returned an amyloid nucleation score of 1.16 ± 0.11.

For the substance CNMDISVCYYRLLMWQRGFR, the amyloid nucleation score result was “inactive”.

With SDYHWYVRTSCGSFSYGHVN, the amyloid nucleation score entry is “inactive”.

DYTRKVHTIEGSSYYWLNFS: the amyloid nucleation score is 1.36 ± 0.078.

Consider TWGKRFYSGIMVQCIREEWA, for which the amyloid nucleation score is -0.741 ± 1.7.

Regarding GLVVKSKYMRRFPGTR, the amyloid nucleation score result was “inactive”.

For PLFFMPGNKWTYFSKSSADT, the amyloid nucleation score result is “inactive”.

In the case of TGKYRAVVLAC, the amyloid nucleation score entry was “inactive”.

Turning to TITLFSSWGSV, the amyloid nucleation score was 0.612 ± 0.22.

On to RICSQMLFFRYESRHFWSFV, for which the amyloid nucleation score result was “inactive”.

On to AHRCFFHLSRHVRKYAIRQR, for which the amyloid nucleation score entry is “inactive”.

As to IAGKIEIIVVRCYSLVGPCT, the amyloid nucleation score stood at 0.305 ± 0.19.

Turning to AEGYFRSLSTIRGSLLDLSA, the amyloid nucleation score result is “inactive”.

In the case of YITVRR, the amyloid nucleation score is -0.297 ± 1.1.

With GLRFPMRWDCGVRVNYRKSR, the amyloid nucleation score entry was “inactive”.

Take AETQCSSYDLCDTPSLFDVR: the amyloid nucleation score result is “inactive”.

MSFSPQKVVAHFCYWSCMRS: the amyloid nucleation score entry was “inactive”.

As for FYMDWTGHLQKFNP, the amyloid nucleation score entry was “inactive”.

Consider GGLEVMSLITT, for which the amyloid nucleation score entry was “inactive”.

As for CMIHYSSRAILEMWLAPRMY, the amyloid nucleation score entry was “inactive”.

In the case of LKIFKCI, the amyloid nucleation score entry was “inactive”.

With LYMRLIGIRRAMHIYPPLKS, the amyloid nucleation score result was “inactive”.

As for ILAHPCSYRFGSWGRLINRN, the amyloid nucleation score entry is “inactive”.

As to LMSTYVTFFRSCKPSSCVFV, the amyloid nucleation score entry was “inactive”.

HWQYCLIFNQYVLKLCATHC yielded an amyloid nucleation score of 1.04 ± 0.16.

As to PVSNRLSCDSAFTFPYNMIF, the amyloid nucleation score came to 0.883 ± 0.16.

In the case of FVLIPSHRAW, the amyloid nucleation score entry was “inactive”.

With GRKKVVTWQLLARQP, the amyloid nucleation score entry was “inactive”.

On to NRFLNIQKRSTPLNLPSSSV, for which the amyloid nucleation score entry is “inactive”.

For VNYLYPS, the amyloid nucleation score entry is “inactive”.

On to SCGSDKSLFDDCIKPRSRHC, for which the amyloid nucleation score result is “inactive”.

Consider VSFHRRKLNHCNCRML, for which the amyloid nucleation score entry was “inactive”.

SSDRLYFINGRMRNRFARFC: the amyloid nucleation score entry is “inactive”.

Turning to RMFLHLTRNKCVRVKKASQE, the amyloid nucleation score entry was “inactive”.

Take MCSRCVAKLATTPRLGFNDS: the amyloid nucleation score entry is “inactive”.

For the substance VWVSVWVVLTAV, the amyloid nucleation score entry was “inactive”.

Consider CVTSVAWANKICARQLFGAD, for which the amyloid nucleation score is 0.204 ± 0.37.

Regarding TSYKYDSNR, the amyloid nucleation score result was “inactive”.

Consider GMRFRLMEKFHRLFYYSNMT, for which the amyloid nucleation score result is “inactive”.

Turning to RLVAFGRRWDESSKVECMWS, the amyloid nucleation score entry is “inactive”.

Take TNTYF: the amyloid nucleation score entry was “inactive”.

NGFCCM: the amyloid nucleation score entry was “inactive”.

Regarding LNDLCKMPVSLFIHGLCLMT, the amyloid nucleation score result was “inactive”.

As to FPYNGALSFCIWYRVASRVY, the amyloid nucleation score entry was “inactive”.

With NRVYA, the amyloid nucleation score result was “inactive”.

Take DYYLNLGGK: the amyloid nucleation score entry was “inactive”.

For the substance LRTWLL, the amyloid nucleation score result was “inactive”.

For LYHPGALVHQQIDS, the amyloid nucleation score entry is “inactive”.

In the case of CWDEIHIMKAHIRSYGGSVS, the amyloid nucleation score entry was “inactive”.

ELALISHTLGSSATPNWFTV: the amyloid nucleation score entry was “inactive”.

As for TWGPHLIPLFNNL, the amyloid nucleation score entry is “inactive”.

In the case of GMFCNGINTNYVPVYYYRSV, the amyloid nucleation score was 1.27 ± 0.17.

For YNEHLQLAVWRYALTVGKVW, the amyloid nucleation score result is “inactive”.

For the substance SCTVKLDCNAVDSVSMDDVD, the amyloid nucleation score entry was “inactive”.

For DSIFSWSFRGFSCVN, the amyloid nucleation score entry was “inactive”.

For PHSQDMVWQCCWGGATAEES, the amyloid nucleation score was -0.047 ± 0.72.

RWSVLILNPPISKKHPDDK yielded an amyloid nucleation score of 0.345 ± 0.69.

Turning to KKGGLLLLNKYN, the amyloid nucleation score result is “inactive”.

As to EQGSSLHRHNHFVTLMGCRG, the amyloid nucleation score entry was “inactive”.

Turning to DLIVILLTSYMYENVVVLNF, the amyloid nucleation score entry is “inactive”.

Regarding SMLSAIMGSS, the amyloid nucleation score result is “inactive”.

For HGSYSDGVEVNEFRLGTRVG, the amyloid nucleation score result was “inactive”.

With MICSLTSHRKRN, the amyloid nucleation score entry is “inactive”.

DAIIVSIAYILG: the amyloid nucleation score result was “inactive”.

For the substance LLTMHWVREWSDGLYCKGKL, the amyloid nucleation score result was “inactive”.

Take TNPTVYWDRGMVGCKKLRAH: the amyloid nucleation score result was “inactive”.

As for SRSVTESLCLYT, the amyloid nucleation score result was “inactive”.

With FGVVH, the amyloid nucleation score entry is “inactive”.

Take ILDWG: the amyloid nucleation score came to 0.886 ± 0.15.

With ADYLLSYACQSTLSHQKKRP, the amyloid nucleation score is -0.854 ± 1.7.

In the case of TPLGLEWYSSREWGISNLWT, the amyloid nucleation score result is “inactive”.

Consider WVIACVMRYVVFKNKVMIVR, for which the amyloid nucleation score entry is “inactive”.

Consider GSISLASWVVYSIAIR, for which the amyloid nucleation score entry was “inactive”.

Take YGRLCDALKGSWYCSIYHGS: the amyloid nucleation score amounted to 1.79 ± 0.074.

Take PWHLIIDLQGWIFLVYEIGQ: the amyloid nucleation score entry is “inactive”.

On to AQILSYVVSYSDPERHFSVM, for which the amyloid nucleation score result is “inactive”.

Regarding MTGCHCSSVAR, the amyloid nucleation score was -0.299 ± 0.68.

With SIFMWLRNRC, the amyloid nucleation score result was “inactive”.

On to FILLGRNGLG, for which the amyloid nucleation score result is “inactive”.

For ANVHNTENLRGLILCRRLLH, the amyloid nucleation score result is “inactive”.

MNVFVAQSLRRVHCAHELN had an amyloid nucleation score of 0.233 ± 0.81.

Regarding KLDLQSSFLFLGSVHV, the amyloid nucleation score entry is “inactive”.

For the substance MCRMLFISGIQNCDPDVIMH, the amyloid nucleation score stood at 1.15 ± 0.12.

The substance HSLWRLGYYM yielded an amyloid nucleation score of 0.912 ± 0.15.

Turning to YIFQICRFGIYYVRSVYTTY, the amyloid nucleation score entry is “inactive”.

On to HTILSTTTYMKMSQYSLW, for which the amyloid nucleation score result was “inactive”.

Consider LVEIIHVSLVFLP, for which the amyloid nucleation score result is “inactive”.

On to PSKFVHKSDLCDNGYLPCTR, for which the amyloid nucleation score entry is “inactive”.

For the substance YVYSVFFYRWW, the amyloid nucleation score entry is “inactive”.

Regarding RITKRRHSVIPCP, the amyloid nucleation score entry was “inactive”.

Consider CLDARYKMRV, for which the amyloid nucleation score entry was “inactive”.

As to LGRCRWMDPHILLVLHVPCE, the amyloid nucleation score result was “inactive”.

Regarding TVRDELSSVFL, the amyloid nucleation score entry was “inactive”.

As for IVLYQATCRSIKRVCVLETL, the amyloid nucleation score result was “inactive”.

Take EYYRWFYN: the amyloid nucleation score entry was “inactive”.

Regarding SSVMFVRIVLRIGGYHLAAR, the amyloid nucleation score result is “inactive”.

For the substance SKLGYRRVSKCIGTDFN, the amyloid nucleation score entry is “inactive”.

Turning to EFMIIMYSHSLCVLQAVQLV, the amyloid nucleation score result was “inactive”.

As to DLVMDFQ, the amyloid nucleation score result is “inactive”.

For the substance CKTMFYY, the amyloid nucleation score entry was “inactive”.

On to TFCGFKP, for which the amyloid nucleation score entry is “inactive”.

As for LQRVFLENRTSVYSVTG, the amyloid nucleation score entry is “inactive”.

With GNTVEGKLE, the amyloid nucleation score entry was “inactive”.

Turning to LYSSLCRGWLCRISISTRAP, the amyloid nucleation score result is “inactive”.

Take WPKLVGCYRGSKGINGRVLY: the amyloid nucleation score result is “inactive”.

As to LSINTQTS, the amyloid nucleation score result is “inactive”.

As to SWYGQLLCVTVVRYHCAPCG, the amyloid nucleation score result is “inactive”.

As to NGMAFGSRVNRLGGCSEVEV, the amyloid nucleation score entry is “inactive”.

Consider PGVYKNVAFLR, for which the amyloid nucleation score result is “inactive”.

Take NILMAGDMHSRA: the amyloid nucleation score result was “inactive”.
